Measured values from PMC11780864, “RNA G-quadruplex structure-based PROTACs for targeted DHX36 protein degradation and gene activity modulation in mammalian cells”.

T1: DHX36 (RHAU) (UniProt Q9H2U1 1-1008)
T1 sequence: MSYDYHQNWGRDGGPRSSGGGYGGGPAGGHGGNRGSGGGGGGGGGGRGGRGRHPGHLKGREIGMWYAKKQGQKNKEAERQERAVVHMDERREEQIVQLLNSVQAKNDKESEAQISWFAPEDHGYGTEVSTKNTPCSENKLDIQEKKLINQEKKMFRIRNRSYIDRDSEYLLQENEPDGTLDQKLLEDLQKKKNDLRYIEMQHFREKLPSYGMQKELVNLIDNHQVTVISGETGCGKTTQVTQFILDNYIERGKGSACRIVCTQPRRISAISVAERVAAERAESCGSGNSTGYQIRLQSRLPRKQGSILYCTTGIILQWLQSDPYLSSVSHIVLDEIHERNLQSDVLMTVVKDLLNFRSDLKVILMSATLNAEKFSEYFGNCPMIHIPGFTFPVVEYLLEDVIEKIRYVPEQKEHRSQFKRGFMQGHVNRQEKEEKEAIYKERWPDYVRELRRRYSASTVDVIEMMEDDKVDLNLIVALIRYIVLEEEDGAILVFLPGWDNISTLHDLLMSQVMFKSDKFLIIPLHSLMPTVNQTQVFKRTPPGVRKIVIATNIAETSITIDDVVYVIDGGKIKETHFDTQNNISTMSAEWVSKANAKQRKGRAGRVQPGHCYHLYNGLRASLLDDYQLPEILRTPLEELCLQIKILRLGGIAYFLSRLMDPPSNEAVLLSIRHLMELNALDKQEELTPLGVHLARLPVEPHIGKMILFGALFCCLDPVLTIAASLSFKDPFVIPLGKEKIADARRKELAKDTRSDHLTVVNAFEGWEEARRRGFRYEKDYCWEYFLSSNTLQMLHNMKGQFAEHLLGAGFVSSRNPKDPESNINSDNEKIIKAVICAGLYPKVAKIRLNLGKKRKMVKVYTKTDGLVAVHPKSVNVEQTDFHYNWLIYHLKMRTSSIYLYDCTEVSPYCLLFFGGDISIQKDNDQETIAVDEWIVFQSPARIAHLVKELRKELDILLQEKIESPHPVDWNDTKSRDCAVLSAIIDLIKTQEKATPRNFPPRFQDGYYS


Molecular target: T1, DHX36 (RHAU)
Assay: MST; EMSA and MST: 25 mM Tris-HCl pH 7.5, 150 mM KCl, 1 mM MgCl2, 37 C 30 min; 30 nM (EMSA) or 40 nM (MST) FAM-oligo; EMSA gel 10% native PAGE, 0.5x TBE, 4 C
Conditions: protein: recombinant; for Kd: G4

| Binder | Kd (label: 3'-FAM) | Kd (label: 5'-FAM) | other results |
| --- | --- | --- | --- |
| GGGUUGCGGAGGGUGGGCCU (structured_RNA, 5'-hexynyl clicked to AHPC-PEG2 (VHL ligand)) [FAM_rG4_A_PEG2 (FAM_rG4_A)] | 79.7 ± 17.3 nM | – | – |
| TTGGGTGGGTGGGTGGGT (structured_DNA, 5'-hexynyl clicked to AHPC-PEG2) [FAM_dG4_A (T95-2T)] | 303 ± 55 nM | – | – |
| CGGGGCGGGUGGGGAGGGGU (structured_RNA, printed with T although called rG4) [FAM_APP rG4 WT] | – | 19.7 ± 2.3 nM | – |
| GGGCCGGCGGUGGGAGCGGAGUGGGUCGGGCGGGG (structured_RNA) [FAM_Gnai2 rG4 WT] | – | 37.9 ± 3.6 nM | – |
| GAGCCGGCGGUGAGAGCGGAGUGAGUCGAACGAAG (ssRNA) [FAM_Gnai2 rG4 Mut] | – | – | binding result (label: 5'-FAM, non-G4): no binding |
